Data set [1] addresses T1, PUM2 RNA-binding domain (Homo sapiens, UniProt Q8TB72 706-1059). The experiment in a line: competition EMSA.
Data set [2] has as its target T1, PUM2 RNA-binding domain. The data set can be described thus: EMSA.
The target in data set [3] is T1, PUM2 RNA-binding domain. The experiment in a line: EMSA. The source holds these as a separate data set. (In EMSA bound probe runs differently from free probe, usually more slowly.)

T1 sequence (Q8TB72 706-1059): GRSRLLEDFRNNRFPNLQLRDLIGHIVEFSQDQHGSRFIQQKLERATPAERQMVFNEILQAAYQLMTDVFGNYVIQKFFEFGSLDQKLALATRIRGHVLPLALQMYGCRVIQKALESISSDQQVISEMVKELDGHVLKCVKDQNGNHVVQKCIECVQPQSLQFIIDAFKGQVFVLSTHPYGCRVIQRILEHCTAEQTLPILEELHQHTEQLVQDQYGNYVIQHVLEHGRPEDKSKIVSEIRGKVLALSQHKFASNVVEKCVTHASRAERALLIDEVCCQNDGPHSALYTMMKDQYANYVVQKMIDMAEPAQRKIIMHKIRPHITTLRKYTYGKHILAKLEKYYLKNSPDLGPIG

On to UGUAUAGA (ssRNA) [8-mer 7G], for which the binding result in data set [1] is “binds”. Consider UGUAUAUA (ssRNA) [8-mer consensus], for which, in data set [1], the binding result is recorded as “binds”. Consider UCUCUUUGUAUAUAUCUCUU (ssRNA) [S1a RNA], for which the binding result in data set [2] is reported as “binds”.

As to CUUGUAUAUAG (ssRNA), the binding result in data set [3] is reported as “binds”.

Take UGUAGAUA (ssRNA) [8-mer 5G]: the binding result in data set [1] was “binds”.

The record behind these values is PMC6645366.
